Values belong to the molecule of their own block, whether it stands above or below them.
Key:
[1] = target: zebrafish PATZ1 BTB domain (residues 1-135) (zebrafish (Danio rerio)); assay: SEC
[2] = target: the molecule itself; assay: SEC

stoichiometry N [1]: 2
Molecule: zebrafish PATZ1 BTB domain (residues 1-135) (domain or fragment)

B1: mouse PATZ1 BTB domain (residues 12-166) (domain or fragment)
chain: SGCYTYQVSRHSTEMLHNLNQQRKNGGRFCDVLLRVGDESFPAHRAVLAACSEYFESVFSAQLGDGGAADGGPADVGGAAAAPGGGAGGSRELEMHTISSKVFGDILDFAYTSRIVVRLESFPELMTAAKFLLMRSVIEICQEVIKQSNVQILVP
stoichiometry N [2]: 2

— paper doi:10.1101/2020.01.13.903898 (bioRxiv, 2020)
